Results taken from paper doi:10.1101/2025.07.23.666440.

Molecular target: PANA_2924 C-terminal domain after TEV cleavage of the His-TEV tag (Pantoea ananatis LMG 20103) (UniProt D4GKQ2)
Assay: SEC

PANA_2923 immunity protein (natural protein)
stoichiometry N: 1
